The values that follow come from publication PMC11889601, “The structural integrity of human TFF1 under reducing conditions” (Redox Biology, 2025).

Series [1] can be described thus: Reductive stability of disulfide bonds: TCEP reduction, IAM alkylation, LC-MS. It counts as physicochemical. The settings on record: chemical stability to reduction, 30 min, room temperature (25 °C), then IAM 100 eq/Cys 5 min, TFA quench; for Reduction and alkylation of disulfide bonds with 5 equivalents of TCEP: peptide 150 μM in 100 mM tris.HCl pH 7.4, 5 molar equivalents TCEP per peptide; for Reduction and alkylation of disulfide bonds with 15 equivalents of TCEP: peptide 150 μM in 100 mM tris.HCl pH 7.4, 15 molar equivalents TCEP per peptide; for Reduction and alkylation of disulfide bonds with 150 equivalents of TCEP: peptide 150 μM in 100 mM tris.HCl pH 7.4, 150 molar equivalents TCEP per peptide. As for the experimental part: Peptides were purified by preparative RP-HPLC using a C5 column (Phenomenex Luna; 10 μm, 21.2 mm ID × 250 mm; flow rate 20 mL/min) on a Shimadzu LC-20A system running a linear gradient of solvents A (0.1 % TFA (aq) and B (90 % acetonitrile (aq)/0.1 % TFA). Fractions were analyzed by liquid chromatography-mass spectrometry (LC-MS), and those containing the desired peptide and >95 % purity were pooled and lyophilized. LC-MS analyses were performed on a C18 column (Agilent Eclipse Plus; […], 2.1 mm ID x 50 mm; flow rate 0.25 mL/min), using a QSTAR Elite electrospray ionization quadrupole time-of-flight (ESI QqTOF) mass spectrometer (SCIEX) linked to an upstream Shimadzu LC-20A HPLC system. HPLC solvents were the same as described previously, substituting formic acid for TFA. Peptides were separated on a gradient of 2–60 % B over 10 min and analyzed over a mass range of 200–2000 amu.
Peptides (TFF1, linaclotide, or BPTI) were dissolved to a concentration of 150 μM in 100 mM tris.HCl, pH 7.4. TCEP and IAM were prepared as separate 0.5 M solutions in 100 mM tris.HCl and the pH of all solutions were adjusted with concentrated KOH to pH 7.4. 25 μL of peptide (3.75 nmol) were treated with 0.5 M TCEP (0–150 molar equivalents per peptide). The samples were incubated at room temperature (25 °C) for 30 min, whereby they were treated with 5 μL (2.5 μmol; 100 eq/Cys) IAM for 5 min, followed by quenching with 5 μL TFA to reduce the pH to 2–3. Samples were then analyzed by LC-MS.

For series [2] the following is noted: monomer and homodimer TFF3 domains; reduced glutathione 10 equivalents, 100 μM, pH 7; ref [22]; cited from earlier work. The text has this: (§1) Many secretory proteins contain disulfide bonds, with most formed during folding in the endoplasmic reticulum. The trefoil factor family (TFF) is a highly relevant example of such secretory peptides in humans, with three characteristic peptides (TFF1, TFF2, TFF3) produced by mucous epithelia. They are most abundantly secreted throughout different compartments of the gastrointestinal tract, where they have important functions in protecting the epithelium barrier and maintaining mucosal epithelial homeostasis. Each member of the family has at least one highly conserved TF ...

Series [3] concerns gastrointestinal proteases. The settings on record: ref [17]-[21]; cited from earlier work.
From the text: as §1

Ends that are not written are not given here.

Consider linaclotide, for which, in series [1], the “Reduction and alkylation of disulfide bonds with 5 equivalents of TCEP” value was “partial reduction and alkylation of a single disulfide bond”; the “Reduction and alkylation of disulfide bonds with 15 equivalents of TCEP” value is “fully reduced and alkylated”; the “Reduction and alkylation of disulfide bonds with 150 equivalents of TCEP” value was “fully reduced and alkylated”.
As for “TFF3: trefoil factor family secretory peptide 3, with TFF domain (EEYVGLSANQCAVPAKDRVDCGYPHVTPKECNNRGCCFDSRIPGVPWCFKPLQEAECTF; ends and bridges not checked; also: three intramolecular disulfides in TFF domain, pairing not given here; UniProt Q07654 22-80, looked up)”, in series [2], the “Persistence of disulfide bonds in the presence of reduced glutathione” value is on record as “no disulfide bond reduction or scrambling detected”. For the same molecule, the “Resistance of the TFF domain to gastrointestinal proteases” value in series [3] is on record as “resistance”.
For “bovine pancreatic trypsin inhibitor [BPTI]”, in series [1], the “Reduction and alkylation of disulfide bonds with 5 equivalents of TCEP” value was “complete reduction and alkylation of a single disulfide bond”; the “Reduction and alkylation of disulfide bonds with 15 equivalents of TCEP” value was “no further reduction”; the “Reduction and alkylation of disulfide bonds with 150 equivalents of TCEP” value is given as “No further reduction”.

B1: TFF2: trefoil factor family secretory peptide 2 (protein, UniProt Q03403 24-129, looked up)
Trefoil factor 2: EKPSPCQCSRLSPHNRTNCGFPGITSDQCFDNGCCFDSSVTGVPWCFHPLPKQESDQCVMEVSDRRNCGYPGISPEECASRKCCFSNFIFEVPWCFFPKSVEDCHY
B1: in series [3], the “Resistance of the TFF domain to gastrointestinal proteases” value is given as “resistance”.
